PMC5437018
Read-outs that look alike come from different tables or passages of the source. One block for each substance: values may come before it.

Assays:
[1] = target: Recombinant purified α-isoform of mammalian PP1 (residues 1–330), tag cleaved (mammalian) (UniProt P62136); assay: SPR; Biacore 3000; PP1 covalently coupled to a CM5 chip; Rif1 CRI, mutants and peptide injected at 20 µl/min in 10 mM Tris-HCl pH 7.5, 250 mM NaCl, 1 mM DTT, 2 mM MnCl2, 0.005% Tween 20; 1:1 binding model
PP1 (Homo sapiens) [2] = target: PP1 (Homo sapiens) (UniProt P62136); settings: cited from earlier work
PP1 (Homo sapiens), sequence (P62136 2-330): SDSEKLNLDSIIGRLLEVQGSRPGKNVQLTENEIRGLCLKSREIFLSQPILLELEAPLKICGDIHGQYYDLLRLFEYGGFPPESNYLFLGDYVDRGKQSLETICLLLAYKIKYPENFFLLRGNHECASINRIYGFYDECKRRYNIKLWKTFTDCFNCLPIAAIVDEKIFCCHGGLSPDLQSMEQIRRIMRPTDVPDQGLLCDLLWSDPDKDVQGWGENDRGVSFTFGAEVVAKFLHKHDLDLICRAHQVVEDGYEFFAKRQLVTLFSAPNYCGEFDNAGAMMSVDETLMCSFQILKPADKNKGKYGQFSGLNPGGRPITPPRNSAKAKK

PP1 (Homo sapiens) [3] = target: PP1 (Homo sapiens) (UniProt P62136); settings: cited from earlier work; remark: listed apart in the source
PP1 (Homo sapiens) [4] = target: PP1 (Homo sapiens) (UniProt P62136); settings: cited from earlier work; remark: listed apart in the source
PP1 (Homo sapiens) [5] = target: PP1 (Homo sapiens) (UniProt P62136); settings: cited from earlier work; remark: listed apart in the source

Recombinant purified α-isoform of mammalian PP1 (residues 1–330), tag cleaved (mammalian), sequence (P62136 whole entry, the tested form may be a part, canonical isoform): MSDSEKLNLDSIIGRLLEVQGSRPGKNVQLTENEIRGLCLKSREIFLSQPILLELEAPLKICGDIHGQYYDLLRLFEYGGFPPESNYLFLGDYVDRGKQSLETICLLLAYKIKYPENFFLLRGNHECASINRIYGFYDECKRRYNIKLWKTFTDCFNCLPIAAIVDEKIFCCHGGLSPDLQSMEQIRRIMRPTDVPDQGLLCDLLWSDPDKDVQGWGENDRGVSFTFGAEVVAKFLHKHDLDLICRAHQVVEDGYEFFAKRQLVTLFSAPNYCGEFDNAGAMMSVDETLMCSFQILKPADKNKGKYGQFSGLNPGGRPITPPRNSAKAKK
PNUTS, sequence (Q96QC0 whole entry): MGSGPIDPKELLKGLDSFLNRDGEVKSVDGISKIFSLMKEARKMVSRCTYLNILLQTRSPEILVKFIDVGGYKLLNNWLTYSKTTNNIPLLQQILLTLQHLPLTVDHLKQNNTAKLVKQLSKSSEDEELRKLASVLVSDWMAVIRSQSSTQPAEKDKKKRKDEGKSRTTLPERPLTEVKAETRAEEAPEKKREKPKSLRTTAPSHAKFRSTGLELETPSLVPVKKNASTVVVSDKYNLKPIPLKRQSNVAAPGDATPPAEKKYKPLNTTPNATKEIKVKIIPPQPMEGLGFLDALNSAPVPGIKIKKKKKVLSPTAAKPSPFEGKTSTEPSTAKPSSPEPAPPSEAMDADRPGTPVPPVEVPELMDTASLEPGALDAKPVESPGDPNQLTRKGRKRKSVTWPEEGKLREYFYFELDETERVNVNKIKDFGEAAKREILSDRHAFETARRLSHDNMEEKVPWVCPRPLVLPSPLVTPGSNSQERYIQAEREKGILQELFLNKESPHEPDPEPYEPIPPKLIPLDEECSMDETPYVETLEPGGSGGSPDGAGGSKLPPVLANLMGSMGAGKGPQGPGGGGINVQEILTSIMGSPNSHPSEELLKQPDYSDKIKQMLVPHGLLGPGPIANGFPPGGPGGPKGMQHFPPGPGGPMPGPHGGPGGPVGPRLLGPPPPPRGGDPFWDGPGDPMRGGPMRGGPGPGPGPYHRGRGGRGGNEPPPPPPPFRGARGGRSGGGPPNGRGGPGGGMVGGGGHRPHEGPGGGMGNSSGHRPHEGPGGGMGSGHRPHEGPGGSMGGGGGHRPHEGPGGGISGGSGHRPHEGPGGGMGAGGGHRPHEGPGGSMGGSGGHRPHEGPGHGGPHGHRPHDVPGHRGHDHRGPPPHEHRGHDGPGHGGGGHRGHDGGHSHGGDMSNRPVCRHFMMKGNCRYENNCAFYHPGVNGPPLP
GADD34, sequence (O75807 whole entry): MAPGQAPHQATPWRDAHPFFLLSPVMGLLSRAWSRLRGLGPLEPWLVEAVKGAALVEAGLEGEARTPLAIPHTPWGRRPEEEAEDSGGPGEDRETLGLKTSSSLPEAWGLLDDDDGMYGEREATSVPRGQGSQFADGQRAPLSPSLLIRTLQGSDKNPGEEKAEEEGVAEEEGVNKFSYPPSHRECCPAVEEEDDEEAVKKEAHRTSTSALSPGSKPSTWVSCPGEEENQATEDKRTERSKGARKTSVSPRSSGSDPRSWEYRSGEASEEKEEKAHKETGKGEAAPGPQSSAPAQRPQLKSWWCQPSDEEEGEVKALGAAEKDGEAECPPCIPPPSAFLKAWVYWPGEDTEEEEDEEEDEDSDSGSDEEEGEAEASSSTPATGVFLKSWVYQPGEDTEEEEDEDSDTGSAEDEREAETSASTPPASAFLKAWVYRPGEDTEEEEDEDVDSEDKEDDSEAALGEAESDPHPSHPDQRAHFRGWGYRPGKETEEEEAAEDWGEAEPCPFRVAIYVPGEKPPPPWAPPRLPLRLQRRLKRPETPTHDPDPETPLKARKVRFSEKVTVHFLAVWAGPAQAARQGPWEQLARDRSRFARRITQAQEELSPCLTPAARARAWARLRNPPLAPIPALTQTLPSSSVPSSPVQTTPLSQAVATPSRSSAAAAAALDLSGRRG
spinophilin, sequence (O35274 417-494): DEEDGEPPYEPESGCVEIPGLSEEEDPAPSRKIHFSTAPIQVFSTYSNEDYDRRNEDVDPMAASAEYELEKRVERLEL
NIPP1, sequence (Q12972 whole entry): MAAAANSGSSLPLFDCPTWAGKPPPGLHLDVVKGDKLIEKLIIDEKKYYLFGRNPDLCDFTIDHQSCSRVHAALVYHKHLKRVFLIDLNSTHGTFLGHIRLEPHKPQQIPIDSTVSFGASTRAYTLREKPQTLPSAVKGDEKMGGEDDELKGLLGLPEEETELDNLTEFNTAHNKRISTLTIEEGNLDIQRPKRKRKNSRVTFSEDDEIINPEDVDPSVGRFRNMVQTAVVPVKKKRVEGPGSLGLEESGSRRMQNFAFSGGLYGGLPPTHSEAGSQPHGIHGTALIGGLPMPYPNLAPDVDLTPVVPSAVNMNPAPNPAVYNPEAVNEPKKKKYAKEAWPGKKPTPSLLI

fold decrease in affinity against wild type [1]: 20 fold
Substance: Rif1 CRI (2093–2190) SILK to SAAA (from UniProt Q6PR54 2093-2190) (domain or fragment)

Substance: GADD34 (from UniProt O75807)
Kd (PP1 (Homo sapiens) [2]): 62 nM

fold decrease in affinity against wild type [1]: 20 fold
Substance: Rif1 CRI (2093–2190) RVSF to RASF (from UniProt Q6PR54 2093-2190) (domain or fragment)

Substance: spinophilin (from UniProt O35274)
Kd (PP1 (Homo sapiens) [3]): 9.3 nM

Substance: NIPP1 (from UniProt Q12972)
Kd (PP1 (Homo sapiens) [4]): 73 nM

Substance: PNUTS (from UniProt Q96QC0)
Kd (PP1 (Homo sapiens) [5]): 8.7 nM

affinity as percent of the wild-type interaction [1]: < 0.1%
Substance: Rif1 CRI (2093–2190) RVSF to RVSA (from UniProt Q6PR54 2093-2190) (domain or fragment)
